We go through 12 molecules from patent US20250114433A1 (published 2025).

For test [1], the target named is T1, KRAS G12V peptide on HLA-A*02:01 (human).
T1 peptide: KLVVVGAVGV
Briefly: multimer staining.

Test [2] addresses KRAS 7-16(G12D) SCT tetramer #2 (human). As to the kind of experiment: flow cytometry, tetramer labelling of TCR-transduced donor X CD8+ T cells, Tetramer APC against CD8 ef450 [Continued]. For orientation: A flow cytometer gives signals particle by particle.
The target in test [3] is KRAS 7-16(G12V) SCT tetramer #7. The description is as above.
Test [4] deals with T2, KRAS G12V (same sequence in NRAS and HRAS G12V) peptide on HLA-A*11:01 (human).
T2 peptide: VVVGAVGVGK
Briefly: cytokine release.

Test [5] has as its target T3, KRAS G12V (same sequence in NRAS and HRAS G12V) peptide on HLA-A*11:01 (human).
T3 peptide: VVGAVGVGK
As to the kind of experiment: cytokine release.

Test [6] has as its target T4, KRAS G12D (same sequence in NRAS and HRAS G12D) peptide on HLA-A*11:01 (human).
T4 peptide: VVVGADGVGK
Briefly: cytokine release.

Test [7] deals with HLA-A2 (DM)/KRAS (5-14_G12V)-peptide multimer. As to the kind of experiment: flow cytometry, Tet+ gate frequency; A2DM/KRAS G12V 5-14 tetramer at 1:50 [Continued].
For test [8] the target is unchanged. Briefly: flow cytometry, Tet+ gate frequency; A2DM/KRAS G12V 5-14 tetramer at 1:100 [Continued].
Test [9] has the same target. As to the kind of experiment: flow cytometry, Tet+ gate frequency; A2DM/KRAS G12V 5-14 tetramer at 1:200 [Continued].
Test [10] shares this target. Briefly: flow cytometry, Tet+ gate frequency; A2DM/KRAS G12V 5-14 tetramer at 1:400 [Continued].
The target in test [11] is A2/KRAS G12V 5-14 (human), A*02:0. Briefly: flow cytometry, Tet+ gate frequency; A2/KRAS G12V 5-14 tetramer at 1:400; no-tetramer control Tet+ 0.

B1: A2 KRAS TCR05 (TCR, V domains shown)
Valpha: AQSVTQPDIHITVSEGASLELRCNYSYGATPYLFWYVQSPGQGLQLLLKYFSGDTLVQGIKGFEAEFKRSQSSFNLRKPSVHWSDAAEYFCAVGDENTGFQKLVFGTGTRLLVSP
Vbeta: DVKVTQSSRYLVKRTGEKVFLECVQDMDHENMFWYRQDPGLGLRLIYFSYDVKMKEKGDIPEGYSVSREKKERFSLILESASTNQTSMYLCASALRGTYEQYFGPGTRLTVT
With B1, the binding result in test [1] was “recognises”.

B2: A2 KRAS TCR18 (TCR, V domains shown)
Valpha: GEDVEQSLFLSVREGDSSVINCTYTDSSSTYLYWYKQEPGAGLQLLTYIFSNMDMKQDQRLTVLLNKKDKHLSLRIADTQTGDSAIYFCAVLLDNQGGKLIFGQGTELSVKP
Vbeta: DVKVTQSSRYLVKRTGEKVFLECVQDMDHENMFWYRQDPGLGLRLIYFSYDVKMKEKGDIPEGYSVSREKKERFSLILESASTNQTSMYLCASRGLSTDTQYFGPGTRLTVL
For B2, the binding result in test [1] is “recognises”.

B3: A2 KRAS TCR08 (TCR, V domains shown)
Valpha: GEDVEQSLFLSVREGDSSVINCTYTDSSSTYLYWYKQEPGAGLQLLTYIFSNMDMKQDQRLTVLLNKKDKHLSLRIADTQTGDSAIYFCAERIDSGNTPLVFGKGTRLSVIA
Vbeta: DVKVTQSSRYLVKRTGEKVFLECVQDMDHENMFWYRQDPGLGLRLIYFSYDVKMKEKGDIPEGYSVSREKKERFSLILESASTNQTSMYLCAIEPPTGNEQYFGPGTRLTVT
For the molecule B3, the binding result in [1] is listed as “recognises”.

B4: A2 KRAS TCR11 (TCR, V domains shown)
Valpha: DQQVKQNSPSLSVQEGRISILNCDYTNSMFDYFLWYKKYPAEGPTFLISISSIKDKNEDGRFTVFLNKSAKHLSLHIVPSQPGDSAVYFCAAISLTSGTYKYIFGTGTRLKVLA
Vbeta: DTEVTQTPKHLVMGMTNKKSLKCEQHMGHRAMYWYKQKAKKPPELMFVYSYEKLSINESVPSRFSPECPNSSLLNLHLHALQPEDSALYLCASSQDLGTVYEQYFGPGTRLTVT
Regarding B4, the binding result in [1] is on record as “recognises”.

B5: A2 KRAS TCR19 (TCR, V domains shown)
Valpha: AQSVSQHNHHVILSEAASLELGCNYSYGGTVNLFWYVQYPGQHLQLLLKYFSGDPLVKGIKGFEAEFIKSKFSFNLRKPSVQWSDTAEYFCAVNDPSDYKLSFGAGTTVTVRA
Vbeta: DGGITQSPKYLFRKEGQNVTLSCEQNLNHDAMYWYRQDPGQGLRLIYYSQIVNDFQKGDIAEGYSVSREKKESFPLTVTSAQKNPTAFYLCASRSDRNEQFFGPGTRLTVL
For the molecule B5, the binding result in [1] is “recognises”.

B6: 141_1 TCR (TCR, V domains shown)
V domain 1: AQTVTQSQPEMSVQEAETVTLSCTYDTSESDYYLFWYKQPPSRQMILVIRQEAYKQQNATENRFSVNFQKAAKSFSLKISDSQLGDAAMYFCALKTSYDKVIFGPGTSLSVIP
V domain 2: NAGVTQTPKFQVLKTGQSMTLQCAQDMNHEYMSWYRQDPGMGLRLIHYSVGAGITDQGEVPNGYNVSRSTTEDFPLRLLSAAPSQTSVYFCASSLGAGEWKSPLHFGNGTRLTVTE
As to B6, the tetramer gate (share of cells in the gate; unit not given) is 14.8 in [2] and 4.06 in test [3].

B7: A2 KRAS TCR09 (TCR, V domains shown)
Valpha: GESVGLHLPTLSVQEGDNSIINCAYSNSASDYFIWYKQESGKGPQFIIDIRSNMDKRQGQRVTVLLNKTVKHLSLQIAATQPGDSAVYFCAEIFNDYKLSFGAGTTVTVRA
Vbeta: EAQVTQNPRYLITVTGKKLTVTCSQNMNHEYMSWYRQDPGLGLRQIYYSMNVEVTDKGDVPEGYKVSRKEKRNFPLILESPSPNQTSLYFCASSQAGLGNEQFFGPGTRLTVL
Take B7: the binding result in test [1] is recorded as “recognises”.

B8: TCR13 (TCR, V domains shown)
Valpha: QKEVEQDPGPLSVPEGAIVSLNCTYSNSAFQYFMWYRQYSRKGPELLMYTYSSGNKEDGRFTAQVDKSSKYISLFIRDSQPSDSATYLCAMSASAAGNKLTFGGGTRVLVKP
Vbeta: EADIYQTPRYLVIGTGKKITLECSQTMGHDKMYWYQQDPGMELHLIHYSYGVNSTEKGDLSSESTVSRIRTEHFPLTLESARPSHTSQYLCASSEGLYNEQFFGPGTRLTVL
Take B8: the figures for the binding result in test [4], in [5] and in test [6] were “no recognition”, “no recognition” and “recognises”, respectively. For the same molecule, the Tet+ in test [7] was 58.7; in test [8], 45; in test [9], 33.7; in test [10], 9.2; in test [11], 84.6. For the same molecule, the tetramer gate (share of cells in the gate; unit not given) in [2] worked out at 82.8; in test [3], 5.19.

B9: A2 KRAS TCR12 (TCR, V domains shown)
Valpha: AQSVTQLDSQVPVFEEAPVELRCNYSSSVSVYLFWYVQYPNQGLQLLLKYLSGSTLVESINGFEAEFNKSQTSFHLRKPSVHISDTAEYFCAVTRDDKIIFGKGTRLHILP
Vbeta: DVKVTQSSRYLVKRTGEKVFLECVQDMDHENMFWYRQDPGLGLRLIYFSYDVKMKEKGDIPEGYSVSREKKERFSLILESASTNQTSMYLCASSLQVSGVAGYTFGSGTRLTVV
Regarding B9, the binding result in test [1] was “recognises”.

B10: A2 KRAS TCR15 (TCR, V domains shown)
Valpha: GEDVEQSLFLSVREGDSSVINCTYTDSSSTYLYWYKQEPGAGLQLLTYIFSNMDMKQDQRLTVLLNKKDKHLSLRIADTQTGDSAIYFCAEMMDTDKLIFGTGTRLQVFP
Vbeta: EAGVAQSPRYKIIEKRQSVAFWCNPISGHATLYWYQQILGQGPKLLIQFQNNGVVDDSQLPKDRFSAERLKGVDSTLKIQPAKLEDSAVYLCASSLPSGNEQFFGPGTRLTVL
For the molecule B10, in [1], the binding result is recorded as “recognises”.

B11: A2 KRAS TCR04 (TCR, V domains shown)
Valpha: AQKVTQAQTEISVVEKEDVTLDCVYETRDTTYYLFWYKQPPSGELVFLIRRNSFDEQNEISGRYSWNFQKSTSSFNFTITASQVVDSAVYFCALMDSSYKLIFGSGTRLLVRP
Vbeta: GAVVSQHPSWVICKSGTSVKIECRSLDFQATTMFWYRQFPKQSLMLMATSNEGSKATYEQGVEKDKFLINHASLTLSTLTVTSAHPEDSSFYICSAFLSGSADTQYFGPGTRLTVL
For B11, in test [1], the binding result was “recognises”.

B12: TCR_20 (TCR, V domains shown)
V domain 1: DAKTTQPPSMDCAEGRAANLPCNHSTISGNEYVYWYRQIHSQGPQYIIHGLKNNETNEMASLIITEDRKSSTLILPHATLRDTAVYYCIVRLNSGNTPLVFGKGTRLSVIA
V domain 2: EAGVAQSPRYKIIEKRQSVAFWCNPISGHATLYWYQQILGQGPKLLIQFQNNGVVDDSQLPKDRFSAERLKGVDSTLKIQPAKLEDSAVYLCASSPTFPAGDRDTQYFGPGTRLTVLE
As for B12, the tetramer gate (share of cells in the gate; unit not given) in [2] came out at 3.48; in test [3], 3.96.
